From patent publication US20120177632A1, “METHODS OF OPTIMIZING DISEASE TREATMENT” (priority 2011, published 2012)

Columns and labels:
[1] = tested on: NADPH oxidase; test: p47phox foci (active NADPH oxidase) in bone marrow-derived macrophages, confocal microscopy; format: cell-based, mouse; settings: WT BMMs; 1,000 units/ml 24 h pretreatment, then 5 mM ATP 1 h
[2] = tested on: gp91^phox; test: gp91phox mRNA in bone marrow-derived macrophages (qRT-PCR); format: cell-based, mouse; settings: WT BMMs; 1,000 units/ml, 24 h
Procedure: Nlrp3, Asc, Casp1 and Txnip mRNA expression were evaluated by qRT-PCR. Bone marrow-derived macrophages from wild-type and Ifnar1^−/− mice were incubated with or without 100 ng/ml Ultrapure LPS for 3 hours, and the mRNA expression for each gene was measured by RT-PCR using standard techniques, showing no significant differences between the samples. Similarly, cell surface expression of ATP receptor P2X7R and CD39 (nucleoside triphosphate diphosphohydrolase 1), an ectonucleotidase that hydrolyzes extracellular ATP, on wild-type and Ifnar1^−/− macrophages were determined to be equivalent by flow cytometry using standard techniques. […] Wild-type bone marrow-derived macrophages were incubated with or without 1,000 units/ml rIFNβ for 24 hours before determining levels of gp91^phox mRNA in the total RNA by qRT-PCR using standard techniques. […] DQ ovalbumin staining locates lysosomes. The proportion of cells with DQ ovalbumin leakage to cytoplasm due to ruptured lysosomes was evaluated by incubating wild-type and Ifnar1^−/− macrophages with DQ ovalbumin (10 μg/ml) alone or a combination of DQ ovalbumin (10 μg/ml) and Alum (250 μg/ml) for 1 hour. Wild-type cells were also measured with and without exposure to rIFNα.

[3] = tested on: mitochondrial ROS; test: ATP-induced mitochondrial ROS generation in macrophages (MITOSOX Red, flow cytometry); format: cell-based; settings: 1,000 units/ml added 24 hr prior to 5 mM ATP for 30 min
Procedure: This example assessed whether ROS generated by the mitochondria may play a role in NLRP3 inflammasome activation. We tested whether IFNβ suppresses ROS generated by mitochondria with MITOSOX™ Red (Invitrogen™). A time course of ATP-induced mitochondrial ROS generation in macrophages was generated using macrophages incubated with 5 mM ATP for the time indicated in FIG. 12A. Macrophages were incubated with 5 mM ATP for indicated time at 37° C. in complete RPMI medium. ROS activity increase was calculated as mean fluorescence intensity value increase (percent) of MITOSOX™ RED staining by flow cytometry. An increase of mean fluorescent intensity (MFI) of the MITOSOX™ staining is shown in FIG. 12(A, B) as the reference point of MFI at time=0 (i.e., no ATP treatment). The ROS activity increase was calculated as mean fluorescence intensity value increase (percent) of MITOSOX™ Red staining by flow cytometry (FIG. 12A).
Suppression of mitochondrial ROS generation by type-1 IFNs was examined. Cells were incubated with 5 mM ATP for 30 min rIFNα or rIFNβ (1,000 units/mL) was added 24 hr prior to the ATP treatment. […]

[4] = tested on: GTP-Rac1; test: GTP-Rac1 level in bone marrow-derived macrophages (western blot); format: cell-based, mouse; settings: WT BMMs; 1,000 units/ml 24 h pretreatment, then 5 mM ATP 5, 10 or 15 min
Procedure: Bone marrow-derived macrophages obtained from wild-type mice were pretreated with 1,000 units/ml rIFNα or IFNβ for 24 hours before treatment with 5 mM ATP for 5, 10, or 15 minutes. Cells were then lysed, and total GTP-Rac1 was compared to GTP-Rac1 by western blot first using an antibody specific for GTP-Rac1, followed by membrane stripping and probing with an antibody recognizing total Rac1. GTP-Rac1 signal densitometry for each sample was normalized to total Rac1 using NIH Image/Image J software.

B1: rIFNβ: recombinant mouse IFN-β (protein, UniProt P01575 22-182, looked up)
Interferon beta: INYKQLQLQERTNIRKCQELLEQLNGKINLTYRADFKIPMEMTEKMQKSYTAFAIQEMLQNVFLVFRNNFSSTGWNETIVVRLLDELHQQTVFLKTVLEEKQEERLTWEMSSTALHLKSYYWRVQRYLKLMKYNSYAWMVVRAEIFRNFLIIRRLTRNFQN
[1]
  formation of p47phox foci: inhibited the formation of p47^phox foci
[2]
  gp91phox mRNA expression: did not affect gp91^phox mRNA expression
[3]
  mitochondrial ROS generation: suppressed
[4]
  cellular levels of GTP-Rac1 (Rac1 activation): inhibit activation of GTP Rac1
